Experimental data taken from patent US20170210810A1, “BIOMARKER PROFILES FOR PREDICTING OUTCOMES OF CANCER THERAPY WITH ERBB3 INHIBITORS AND/OR CHEMOTHERAPIES” (Merrimack Pharmaceuticals, Inc., priority 2013, published 2017).

Columns and labels:
[1] = tested on: EGFR-wild-type non-small cell lung cancer (NSCLC)
Description: A group participating in the study was comprised of 132 patients with wild-type epidermal growth factor receptor (EGFR) who progressed on ≧1 platinum-based standard of care therapy and were EGFR tyrosine kinase inhibitor (TKI)-naïve. […] Data were collected at 10+ months.
BM+ patients were defined as having detectable HRG mRNA by RNA-ISH (RNA in situ hybridization) as described above in Example 1.

[2] = tested on: advanced, platinum-resistant ovarian cancer; assay: Clinical trial in ovarian cancer: paclitaxel with or without MM-121 (Example 5); format: in vivo, human
Description: A clinical trial was performed that was designed to allow, inter alia, determination of associations between biomarker profiles and clinical responses. Biomarker data were measured in pre-treatment biopsies and (when available) in archived tumor samples. Results pertaining to predictive biomarkers measured in pre-treatment biopsies are described herein.
In total, six primary biomarkers were measured using 15 assays. For the 5 chromogenic assays (qIHC and RNA-ISH), two different overall scores were used: composite score and top-10 score. Accordingly, 20 different variables were assessed at this stage. A Cox proportional hazard model was used to rank the biomarkers. This method determines if PFS varies with biomarker values differently in the treatment arm relative to the control arm. A P-value cutoff of 0.4 was used to determine which biomarkers would be prioritized for subsequent bivariate analyses.
Based on these two thresholds, a biomarker profile positive (BM+) subpopulation is defined for subsequent analyses as: (ErbB2 levels≦log10 5.1) AND (HRG score≧1) (“ErbB2 low” AND “HRG positive”). Accordingly, a biomarker profile negative (BM−) subpopulation is defined as (ErbB2 levels >log10 5.1) OR (HRG score<1) This definition results in a BM+ prevalence of 34% in the clinical trial population.
In FIG. 8G (progression free survival at 10+ months) and FIG. 8H (overall survival at 10+ months), the treatment arm is represented by a blue line and the control arm is represented by a black line.

[3] = cited from earlier work
[4] = tested on: locally advanced or metastatic ER+ and/or PR+, HER2 negative breast cancer; assay: Randomized, double-blind phase 2 trial of exemestane +/- MM-121 in breast cancer (Example 6)
Description: This population is for safety analyses, as well as the primary population for all efficacy parameters.
Analyses were performed on the five pre-specified primary biomarkers, all mechanistically linked to ErbB3 signaling, as measured in FFPE archived tissue blocks. Biomarkers were assessed based on local HR scans. Thresholds for defining biomarker profile positive populations were chosen based on these scans and on results obtained in the above-described ovarian cancer trial. A single two-variable model was assessed using HRG and ErbB2, based on the findings from the above-described ovarian cancer trial. HRs in the biomarker profile positive and negative populations were calculated using a Cox proportional hazard model that included biomarker groups by treatment and stratification factors as additive factors. Only patients with non-missing biomarkers were used in each calculation.
Both assays were performed using FFPE archived tissue blocks.
Biomarker profile positive (BM+) and biomarker profile negative (BM−) subpopulations were defined by dichotomizing biomarker values for HRG and ErbB2. For HRG, a cut point of −5 (RT-PCR score) was chosen based on the local HR scan (value at which HR=1). […] Two separate analyses of ErbB2 levels are provided: (1) ErbB2 levels based on the qIHC assay; and (2) for patients where qIHC data are missing, but HCT results were available, ErbB2 levels were adapted from the reported HCT results, with a score of HCT 2+ being deemed equal to log10(ErbB2)=5.1.
All efficacy analyses for the BM subgroups were performed using a Cox proportional hazard model that included both of the pre-specified strata as additive effects in combination with the treatment effect. The ErbB2 low & HRG high BM+ subpopulation was defined as patients with log10(ErbB2)≦5.1 and HRG RT-PCR>−5.

[5] = best overall response, BM+ (heregulin+) as worded in FIG. 11 legend
[6] = safety population, count (percentage)

C#Cc1cccc(Nc2ncnc3cc(OCCOC)c(OCCOC)cc23)c1 [erlotinib]
complete response (CR) [1, 5]: none | partial response (PR) [1, 5]: 6.7% | progressive disease (PD) [1, 5]: 53.3% | PFS of BM− (heregulin−) patients compared with BM+ (heregulin+) patients ([1]; patients treated with erlotinib alone (FIG. 12C)): much longer

CC(=O)O[C@H]1C(=O)[C@@]2(C)[C@H]([C@H](OC(=O)c3ccccc3)[C@]3(O)C[C@H](OC(=O)[C@H](O)[C@@H](NC(=O)c4ccccc4)c4ccccc4)C(C)=C1C3(C)C)[C@]1(OC(C)=O)CO[C@@H]1C[C@@H]2O [paclitaxel, Paclitaxel, reference compound]
PFS of BM− (heregulin−) patients compared with BM+ (heregulin+) patients ([2]; patients treated with paclitaxel alone (FIG. 8I)): much longer

C=C1C[C@@H]2[C@H](CC[C@]3(C)C(=O)CC[C@@H]23)[C@@]2(C)C=CC(=O)C=C12 [exemestane, 6-methylenandrosta-1,4-diene-3,17-dione, reference compound]
solubility in N,N-dimethylformamide ([3]; N,N-dimethylformamide): freely soluble | solubility in methanol ([3]; methanol): soluble | solubility in water ([3]; water): practically insoluble | objective response rate ([4]; BM+ patients): 0% | objective response rate ([4]; BM− patients): 5.9% | time within which all treated patients exhibited disease progression ([4]; biomarker profile positive tumors (FIG. 10B)): ≤ 20 weeks | PFS of BM− (heregulin−) patients compared with BM+ (heregulin+) patients ([4]; patients treated with exemestane alone (FIG. 10E)): much longer | Subjects with CTCAE grade 3 or higher TEAE [4, 6]: 15 ( 25.4) | Subjects with TEAE leading to death [4, 6]: 1 ( 1.7) | Subjects with TEAE leading to dose discontinuation [4, 6]: 0 | Subjects with TEAE related to study drug (a) [4, 6]: 32 ( 54.2) | Subjects with at least one AE [4, 6]: 51 ( 86.4) | Subjects with at least one TEAE [4, 6]: 50 ( 84.7) | Subjects with serious TEAE [4, 6]: 11 ( 18.6)

B1: MM-121: anti-ErbB3 monoclonal antibody having VH and VL sequences as shown in SEQ ID NOs: 1 and 2 (antibody, V domains shown)
VH: EVQLLESGGGLVQPGGSLRLSCAASGFTFSHYVMAWVRQAPGKGLEWVSSISSSGGWTLYADSVKGRFTISRDNSKNTLYLQMNSLRAEDTAVYYCTRGLKMATIFDYWGQGTLVTVSS
VL: QSALTQPASVSGSPGQSITISCTGTSSDVGSYNVVSWYQQHPGKAPKLIIYEVSQRPSGVSNRFSGSKSGNTASLTISGLQTEDEADYYCCSYAGSSIFVIFGGGTKVTVL
PFS versus erlotinib alone ([1]; unselected overall population (FIG. 12A)): overall better outcomes | HR (trt:ctrl) ([2]; BM+, subgroup ErbB3 score ≧2): 0.33 | HR (trt:ctrl) ([2]; BM+, subgroup ErbB4 score 0): 0.13 | HR (trt:ctrl) ([2]; BM−, subgroup ErbB4 score ≧1): 2.20 | cumulative HR ([2]; patients with detectable levels of HRG and low levels of ErbB2): < 0.5 | HR ([4]; Group ErbB2 < 5.1 (HCT), BM negative): 3.00 | HR ([4]; Group ErbB2 < 5.1 (HCT), BM population): 0.82 | HR ([4]; Group ErbB2 < 5.1 (HCT), BM positive): 0.62 | HR ([4]; Group ErbB2 < 5.1 (qIHC) & HRG > −5, BM negative): 1.30 | HR ([4]; Group ErbB2 < 5.1 (qIHC) & HRG > −5, BM population): 0.86 | HR ([4]; Group ErbB2 < 5.1 (qIHC) & HRG > −5, BM positive): 0.32 | HR ([4]; Group ErbB2 < 5.1 (qIHC), BM negative): 3.00 | HR ([4]; Group ErbB2 < 5.1 (qIHC), BM population): 1.16 | HR ([4]; Group ErbB2 < 5.1 (qIHC), BM positive): 0.84 | HR ([4]; Group HRG > −5, BM negative): 0.99 | HR ([4]; Group HRG > −5, BM population): 0.68 | HR ([4]; Group HRG > −5, BM positive): 0.35 | benefit (PFS) from adding MM-121 to exemestane therapy ([4]; biomarker negative patient population (FIG. 10A)): little if any benefit | benefit (PFS) from adding MM-121 to exemestane therapy ([4]; biomarker positive population (FIG. 10B)): dramatic benefit | decrease in risk of death ([4]; full patient population, overall survival, vs standard-of-care arm): 59% | decrease in risk of progression ([4]; heregulin-positive patients, n=34, final analysis): 74% | HR ([4]; no selection, BM population N=115): 0.75
